Patent US20020098524A1 (published 2002)

Target: T1, human (h)TNF-α (human, UniProt P01375 77-233)
T1 construct: Bought purified protein; also called TNF-alpha; Tumor Necrosis Factor α
Assay: IAsys biosensor, dissociation in 10 mM HEPES/0.05% Tween
Protocol: The binding and dissociation of phage clone A1, amino acid sequence: RYWQDIP; Table 1, (SEQ ID NO: 3) to TNF-α was monitored using an lAsys AutoPlus Biosensor following the Labsystems Affinity Sensors lAsys Protocol 2.4 ‘Immobilization to Protein Layer: Thiol coupling to avidin’ (Thermo BioAnalysis Corp. Franklin, Mass.). Two cuvettes were first coated with avidin and one (the control) was then blocked with biotin. This was followed by activation of the lysine groups. A 15 μl aliquot of a 1 mg/ml (h)TNF-α solution was added to each cuvette. […] After blocking and washing, phage clone A1, RYWQDIP (SEQ ID NO: 3) was added to give a final titer of 5×10¹¹ pfu/ml.
The dissociation of the phage from the TNF-α is very slow with the dissociation constant estimated as koff<10⁻⁴ sec⁻¹ (10 mM HEPES/0.05% Tween). Washing with a 1×buffer concentrate (at the 70 min time point) only removed a small portion of the phage.

T1 sequence (P01375 77-233 limits assumed): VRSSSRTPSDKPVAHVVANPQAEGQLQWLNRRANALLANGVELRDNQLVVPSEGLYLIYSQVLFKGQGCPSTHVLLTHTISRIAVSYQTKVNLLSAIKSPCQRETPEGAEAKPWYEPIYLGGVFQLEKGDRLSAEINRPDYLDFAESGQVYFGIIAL

| Binder | koff [s⁻¹] |
| --- | --- |
| RYWQDIP (also called T1; phage peptide clone A1) [phage clone A1, amino acid sequence RYWQDIP] | < 0.0001 |

Target: T1, human (h)TNF-α
Assay: phage display selection on hTNF-α-coated tube, PCR of phage still bound after acid wash
Protocol: A thin-walled PCR tube was coated with the target human (h)TNF-α (BioSource International; Camarillo, Calif.) by incubating 100 μl of 0.5 mg/ml purified TNF-α in PBS overnight at 4° C. in the PCR tube. Excess unbound TNF-α was removed, and the tube was coated overnight at 4° C. with 100 μl of SuperBlock™ blocking buffer (Pierce: Rockford, Ill.) in Tris buffered saline (TBS). The anti-target (SuperBlock™ blocking buffer) was prepared in separate PCR tubes coated overnight at 4° C. with 100 μl of SuperBlock™.
Unbound phage were removed by washing the tube 5 times with 150 μl PBS containing 0.1% Tween-20 at room temperature. Low affinity binders were washed away by incubating with 60 μl of 0.2 M Glycine (pH 2.2) for 6 minutes followed by neutralization with 9 μl M Tris-Cl (pH 9.1). The acid washed population was retained for further analysis. The tube was then washed again 3 times with 150 μl of PBS.
This was due to too much template (i.e. phage) in the PCR reaction, and can be alleviated by decreasing the phage concentration or by decreasing the number of PCR cycles (FIG. 3). To decrease the amount of the 500-700 bp diffuse band, the PCR product was diluted appropriately for subsequent PCR reactions from this starting material to generate more products for sub-cloning purposes.

| Binder | binding result |
| --- | --- |
| LPILTQT [T12 (LPILTQT)] | binds |
| THKNTLR [T10 (THKNTLR)] | binds |
| ATFPNQS [T5 (ATFPNQS)] | binds |
| APEPILA [T2 (APEPILA)] | binds |
| LTQSFSS [T9 (LTQSFSS)] | binds |
| SILPVSH [T13 (SILPVSH)] | binds |
| AWHSPSV [T8 (AWHSPSV)] | binds |
| DMIMVSI [T3 (DMIMVSI)] | binds |
| QPLRKLP [T15 (QPLRKLP)] | binds |
| WTPKPTQ [T4 (WTPKPTQ)] | binds |
| TMLPYRP [T7 (TMLPYRP)] | binds |
| GQTHFHV [T11 (GQTHFHV)] | binds |
| ASTVGGL [T6 (ASTVGGL)] | binds |
| LSQPIPI [T14 (LSQPIPI)] | binds |
